B1: G2(2E07) scFv (scFv, V domains shown)
VH: QVQLVQSGAEVKKPGASVKVSCKASGGTFSSATISWVRQAPGQGLEWMGWIYPNSGGTVYAQKFQGRVTMTRDTSTSTVYMELSSLRSEDTAVYYCAATEWLGVWGQGTTVTVSS
VL: DIQMTQSPSSLSASVGDRVTITCRASQSISTWLAWYQQKPGKAPKLLIYAASSLRSGVPSRFSGSGSGTDFTLTISSLQPEDFATYYCQQSYNTPYTFGQGTKLEIK
B2: G2(2H11) scFv (scFv, V domains shown)
VH: QVQLVQSGAEVKKPGASVKVSCKASGYTFSDYYVHWVRQAPGQGLEWMGWINPNSGGTNYAQKFQGRVTMTRDTSTSTVYMELSSLRSEDTAVYYCARGEWFDPWGQGTLVTVSS
VL: DIQMTQSPSSLSASVGDRVTITCRASQSISSWLAWYQQKPGKAPKLLIYAASTLQSGVPSRFSGSGSGTDFTLTISSLQPEDFATYYCQQSYSTPFTFGPGTKVDIK
B3: G2(1H10) scFv (scFv, V domains shown)
VH: QVQLVQSGAEVKKPGASVKVSCKASGGTFSSYAISWVRQAPGQGLEWMGWINPNNGGTNYAQKFQGRVTMTRDTSTSTVYMELSSLRSEDTAVYYCARDSGVGMDVWGQGTTVTVSS
VL: DIQMTQSPSSLSASVGDRVTITCRASQSISKWLAWYQQKPGKAPKLLIYAASSLQSGVPSRFSGSGSGTDFTLTISSLQPEDFATYYCQQSYSAPYTFGQGTKVEIK
B4: G2(2B08) scFv (scFv, V domains shown)
VH: QVQLVQSGAEVKKPGASVKVSCKASGYTLTSHLIHWVRQAPGQGLEWMGWINPNSGGTNYAQKFQGRVTMTRDTSTSTVYMELSSLRSEDTAVYYCARERRSGMDVWGQGTTVTVSS
VL: DIQMTQSPSSLSASVGDRVTITCRASQGISNYLAWYQQKPGKAPKLLIYAASRLESGVPSRFSGSGSGTDFTLTISSLQPEDFATYYCQQSYSIPLTFGGGTKVEIK
B5: G2(2C06) scFv (scFv, V domains shown)
VH: QVQLVQSGAEVKKPGASVKVSCKSSGYSFDSYVVNWVRQAPGQGLEWMGWINPNSGGTNYAQKFQGRVTMTRDTSTSTVYMELSSLRSEDTAVYYCARDWVLDYWGQGTLVTVSS
VL: DIQMTQSPSSLSASVGDRVTITCRASQTISSWLAWYQQKPGKAPKLLIYAASSLQSGVPSRFSGSGSGTDFTLTISSLQPEDFATYYCQQSYSTPFTFGPGTKVDIK
B6: G2(1C09) scFv (scFv, V domains shown)
VH: QVQLVQSGAEVKKPGASVKVSCKASGYTFSSYNMHWVRQAPGQGLEWMGWINGNTGGTNYAQKFQGRVTMTRDTSTSTVYMELSSLRSEDTAVYYCARGVNVDDFDYWGQGTLVTVSS
VL: DIQMTQSPSSLSASVGDRVTITCRASQTISNYLNWYQQKPGKAPKLLIYAASNLQSGVPSRFSGSGSGTDFTLTISSLQPEDFATYYCQQSYSTPQTFGQGTKVEIK
B7: G2(1D07) scFv (scFv, V domains shown)
VH: QVQLVQSGAEVKKPGASVKVSCKASGYTFTSYGISWVRQAPGQGLEWMGWISAYNGYTNYAQNLQGRVTMTRDTSTSTVYMELSSLRSEDTAVYYCARDQFYGGNSGGHDYWGQGTLVTVSS
VL: DIQMTQSPSSLSASVGDRVTITCQASQDISNYLNWYQQKPGKAPKLLIYAASSLQSGVPSRFSGSGSGTDFTLTISSLQPEDFATYYCQQSYSTPLTFGGGTKLEIK
B8: G2(1G12) scFv (scFv, V domains shown)
VH: QVQLVQSGAEVKKPGASVKVSCKASGYTFTSYLMHWVRQAPGQGLEWMGWISPNSGGTNYAQKFQGRVTMTRDTSTSTVYMELSSLRSEDTAVYYCARGDWFDPWGQGTLVTVSS
VL: DIQMTQSPSSLSASVGDRVTITCQASQDISNYLNWYQQKPGKAPKLLIYGASRLQSGVPSRFSGSGSGTDFTLTISSLQPEDFATYYCQQSYSTPYTFGQGTKLEIK
B9: G2(1F12) scFv (scFv, V domains shown)
VH: QVQLVQSGAEVKKPGASVKVSCKASGYTFTDYYMHWVRQAPGQGLEWMGWIYPNTGGTNYAQKFQGRVTMTRDTSTSTVYMELSSLRSEDTAVYYCARDYGGYVDYWGQGTLVTVSS
VL: DIQMTQSPSSLSASVGDRVTITCQASQDIGSWLAWYQQKPGKAPKLLIYATSSLQSGVPSRFSGSGSGTDFTLTISSLQPEDFATYYCQQSYSTPYTFGQGTKLEIK
B10: G2(2C11) scFv (scFv, V domains shown)
VH: QVQLVQSGAEVKKPGASVKVSCKASGGTFNNYAFSWVRQAPGQGLEWMGWINPNSGGTNYAQKFQGRVTMTRDTSTSTVYMELSSLRSEDTAVYYCARDGVAVASDYWGQGTLVTVSS
VL: DIQMTQSPSSLSASVGDRVTITCRASQGISNYLAWYQQKPGKAPKLLIYAASTLQSGVPSRFSGSGSGTDFTLTISSLQPEDFATYYCQQSYSVPYSFGQGTKLEIK
B11: G2(2E03) scFv (scFv, V domains shown)
VH: EVQLLQSGAEVKKPGSSVKVSCKASGGTFSSYAISWVRQAPGQGLEWMGWINPNSGGTISAPNFQGRVTMTRDTSTSTVYMELSSLRSEDTAVYYCARANWLDYWGQGTLVTVSS
VL: DIQMTQSPSSLSASVGDRVTITCRASQSISRWLAWYQQKPGKAPKLLIYAASTVQSGVPSRFSGSGSGTDFTLTISSLQPEDFATYYCQQSYSTPYTFGQGTKLEIK
B12: G2(1E05) scFv (scFv, V domains shown)
VH: QVQLVQSGAEVKKPGASVKVSCKASGYTFTDYNMHWVRQAPGQGLEWMGWMNPNSGGTNYAQKFQGRVTMTRDTSTSTVYMELSSLRSEDTAVYYCAREEDYWGQGTLVTVSS
VL: DIQMTQSPSSLSASVGDRVTITCRASQSIGRWLAWYQQKPGKAPKLLIYAASSLQSGVPSRFSGSGSGTDFTLTISSLQPEDFATYYCQQSYSTPYSFGQGTKVEIK
B13: G2(1C02) scFv (scFv, V domains shown)
VH: QVQLVQSGAEVKKPGASVKVSCKASGYTFTSYGISWVRQAPGQGLEWMGWINPNSGGTNYAQKFQGRVTMTRDTSTSTVYMELSSLRSEDTAVYYCARGWELGYWGQGTLVTVSS
VL: DIQMTQSPSSLSASVGDRVTITCRASQSISNWLAWYQQKPGKAPKLLIYAASSLQSGVPSRFSGSGSGTDFTLTISSLQPEDFATYYCQQSYSAPYTFGPGTKVDIK
B14: G2(1D03) scFv (scFv, V domains shown)
VH: QVQLVQSGAEVKKPGASVKVSCKASGYTFTRYTINWVRQAPGQGLEWMGWINPNSGGANYAQKFQGRVTMTRDTSTSTVYMELSSLRSEDTAVYYCARGDWFDPWGQGTLVTVSS
VL: DIQMTQSPSSLSASVGDRVTITCRASQSISTWLAWYQQKPGKAPKLLIYAASTLQSGVPSRFSGSGSGTDFTLTISSLQPEDFATYYCQQSYSTPYTFAQGTKLEIK
B15: G2(2H10) scFv (scFv, V domains shown)
VH: QVQLVQSGAEVKKPGASVKVSCKASGYSFTRYNMHWVRQAPGQGLEWMGWINPNSGGTNYAQKFQGRVTMTRDTSTSTVYMELSSLRSEDTAVYYCARDGYSGLDVWGKGTTVTVSS
VL: DIQMTQSPSSLSASVGDRVTITCRASQSISSWLAWYQQKPGKAPKLLIYGASSLQSGVPSRFSGSGSGTDFTLTISSLQPEDFATYYCQQSYSVPYSFGQGTKLEIK
B16: G2(1G01) scFv (scFv, V domains shown)
VH: QVQLVQSGAEVKKPGASVKVSCKASGYTFTSYGISWVRQAPGQGLEWMGWMNPNSGGTNYAQKFQGRVTMTRDTSTSTVYMELSSLRSEDTAVYYCARGEWLDYWGQGTLVTVSS
VL: DIQMTQSPSSLSASVGDRVTITCRASQTISSWLAWYQQKPGKAPKLLIYAASSLQSGVPSRFSGSGSGTDFTLTISSLQPEDFATYYCQQSYGVPYTFGQGTKVEIK
B17: G2(1B10) scFv (scFv, V domains shown)
VH: EVQLLESGAEVKKPGASVKVSCKASGYTFTSYGISWVRQAPGQGLEWMGWINPYSGGTNYAQKLQGRVTMTRDTSTSTVYMELSSLRSEDTAVYYCARANWLDYWGQGTLVTVSS
VL: DIQMTQSPSSLSASVGDRVTITCRASQSISSWLAWYQQKPGKAPKLLIYAASTLQSGVPSRFSGSGSGTDFTLTISSLQPEDFATYYCQQSYSSPYTFGPGTKVDIK
B18: G2(1G07) scFv (scFv, V domains shown)
VH: QVQLVQSGAEVKKPGASVKVSCKASGGTFSNYAINWVRQAPGQGLEWMGWISPYSGGTNYAQKFQGRVTMTRDTSTSTVYMELSSLRSEDTAVYYCARDSGSYFDYWGQGTLVTVSS
VL: DIQMTQSPSSLSASVGDRVTITCQASQDISNYLNWYQQKPGKAPKLLIYAASTLQSGVPSRFSGSGSGTDFTLTISSLQPEDFATYYCQQTYAIPLTFGGGTKVEIK
B19: G2(1C03) scFv (scFv, V domains shown)
VH: QVQLVQSGAEVKKPGASVKVSCKASGYTFTTYYMHWVRQAPGQGLEWMGWINPNSGGTNYAQKFQGRVTMTRDTSTSTVYMELSSLRSEDTAVYYCARSDWFDPWGQGTLVTVSS
VL: DIQMTQSPSSLSASVGDRVTITCRASQSVSNWLAWYQQKPGKAPKLLIYAASSLQSGVPSRFSGSGSGTDFTLTISSLQPEDFATYYCQQSYSTPTFGQGTKLEIK
B20: G2(2A10) scFv (scFv, V domains shown)
VH: EVQLLESGAEVKKPGASVKVSCKASGYSFTDYIVHWVRQAPGQGLEWMGWINPYSGGTKYAQKFQGRVTMTRDTSTSTVYMELSSLRSEDTAVYYCARVLQEGMDVWGQGTLVTVSS
VL: DIQMTQSPSSLSASVGDRVTITCRASQSISSYLNWYQQKPGKAPKLLIYGVSSLQSGVPSRFSGSGSGTDFTLTISSLQPEDFATYYCQQSYSNPTFGQGTKVEIK
B21: G2(1G03) scFv (scFv, V domains shown)
VH: EVQLLESGAEVKKPGASVKVSCKASGYTFTSYAMNWVRQAPGQGLEWMGWMNPNSGGTKYAQKFQGRVTMTRDTSTSTVYMELSSLRSEDTAVYYCAREGPAALDVWGQGTLVTVSS
VL: DIQMTQSPSSLSASVGDRVTITCRASQGISRWLAWYQQKPGKAPKLLIYAASTLQPGVPSRFSGSGSGTDFTLTISSLQPEDFATYYCQQSYIAPFTFGPGTKVDIK
B22: G2(1A10) scFv (scFv, V domains shown)
VH: QVQLVQSGAEVKKPGASVKVSCKASGGTFSSYAFSWVRQAPGQGLEWMGWINPDTGYTRYAQKFQGRVTMTRDTSTSTVYMELSSLRSEDTAVYYCARGDYTGNWYFDLWGRGTLVTVSS
VL: DIQMTQSPSSLSASVGDRVTITCRASRDIGRAVGWYQQKPGKAPKLLIYAASSLQSGVPSRFSGSGSGTDFTLTISSLQPEDFATYYCQQLDSYPFTFGPGTKVDIK

The binders below were run against T1, HLA-A*01:01_… (HLA-PEPTIDE target G2), recombinant biotinylated complex (human, enzymatically biotinylated (BirA)) (assay: phage panning, scFv ELISA;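 note: scFv binders from three to four bead panning rounds, tested as PPEs by ELISA on streptavidin plates carrying peptide-HLA complex (2 µg/ml), detected via anti-V5 and HRP anti-mouse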).
T1 construct: also called G2-pHLA
Description: Phage library screening was carried out according to the overall screening design described above. Three to four rounds of bead-based panning were performed to identify scFv binders to each peptide-HLA complex. For each round of panning, an aliquot of starting phage was set aside for input titering and the remaining phage was depleted three times against Dynabead M-280 streptavidin beads (Life Technologies) followed by a depletion against Streptavidin beads pre-bound with 100 μmoles of pooled negative peptide-HLA complexes. For the first round of panning, 100 μmoles of peptide-HLA complex bound to streptavidin beads was incubated with depleted phage for 2 hours at room temperature with rotation. Three five-minute washes with 0.5% BSA in 1×PBST (PBS+0.05% Tween-20) followed by three five-minute washes with 0.5% BSA in 1×PBS were utilized to remove any unbound phage to the peptide-HLA complex bound beads. To elute the bound phage from the washed beads, 1 ml 0.1M TEA was added and incubated for 10 minutes at room temperature with rotation. The eluted phage was collected from the beads and neutralized with 0.5 ml 1M Tris-HCl pH 7.5. The neutralized phage was then used to infect log growth TG-1 cells (OD₆₀₀=0.5) and after an hour of infection at 37° C., cells were plated onto 2YT media with 100 μg/ml carbenicillin and 2% glucose (2YTCG) agar plates for output titer and bacterial growth for subsequent panning rounds.
96-well and/or 384-well streptavidin coated plates (Pierce) were coated with 2 μg/ml peptide-HLA complex in HLA buffer and incubated overnight at 4° C. Plates were washed three times between each step with PBST (PBS+0.05%). The antigen coated plates were blocked with 3% BSA in PBS (blocking buffer) for 1 hour at room temperature. After washing, scFv PPEs were added to the plates and incubated at room temperature for 1 hour. Following washing, mouse anti-v5 antibody (Invitrogen) in blocking buffer was added to detect scFv and incubated at room temperature for 1 hour. After washing, HRP-goat anti-mouse antibody (Jackson ImmunoResearch) was added and incubated at room temperature for 1 hour.

Binding result, binds:
B1
B2
B3
B4
B5
B6
B7
B8
B9
B10
B11
B12
B13
B14
B15
B16
B17
B18
B19
B20
B21
B22

— patent US20240059797A1 (GRITSTONE BIO, published 2024)
